Measurements from the Human Domainome abundance scans (Beltran et al. 2025).

B1: 3'-5' exoribonuclease 1, residues 65 to 114; numbered along this chain, Q8IV48 (parent)
chain: VYKEIAITNGCINRMSKEELRAKLSEFKLETRGVKDVLKKRLKNYYKKQK

Variants of: B1
Test: abundance fitness (aPCA) (normalised: wild type 0, dead -1); higher = more abundant; growth selection in yeast, the domain comes from the species named
Conditions: Homo sapiens

Abundance fitness, by site and new letter:
L20: Q -0.892, G -0.942, E -0.78, D -1, A -0.912, P -0.961, S -0.479, M -0.282, R -0.997, F -0.512, C -0.879, K -0.956
I12: D -0.961, S -0.769, P -0.716, Y -0.699, A -0.873, Q -0.899, E -0.818, C -0.721, W -0.435, V -0.152, R -0.738, K -0.741, T -0.457, G -0.877, F -0.693, L -0.389
M15: W -0.83, Y -0.645, R -0.718, Q -0.885, F -0.544, T -0.414, K -0.326, E -1.05, C -0.826, D -0.981, P -1, H -0.873, L -0.317, A -0.678, N -0.789, G -0.975, I -0.635
E18: N 0.047, R 0.04, Y -0.179, I -0.003, M 0.012, F -0.007, D -0.034, W -0.131, Q 0.075, L -0.025, H -0.043, S 0.038, A 0.079, G -0.023, V 0.058, P -0.008, C 0.072, K 0.058
E4: Y -0.164, D 0.003, S -0.077, W -0.229, A -0.113, F -0.214, M -0.144, L -0.334, H -0.173, N -0.057, C -0.161, I -0.287, G -0.093, R -0.353, Q -0.085, T -0.06, P -0.107, K -0.251
I7: W -0.287, E -0.175, Y -0.14, V -0.091, G -0.13, N -0.17, C -0.164, A -0.097, Q -0.141, K -0.131, M -0.016, L 0.019, F -0.198, S -0.142, D -0.171, H -0.166, R -0.178, T -0.1, P -0.067
N9: L -0.127, A -0.033, K 0.066, T -0.12, F -0.091, H -0.066, D -0.244, C -0.047, M 0.036, E -0.241, W -0.331, S -0.067, P 0.015, Q -0.174, V -0.092
Y2: W -0.069, M 0.012, G 0.069, V 0.021, L -0.052, P 0.046, A 0.006, F -0.053, I 0.004, N 0.067, Q 0.076, R -0.072, H 0.01, S 0.028, C 0.013, E 0.048, K 0.041, D 0.1
S16: D -0.336, Q -0.54, R -0.097, E -0.746, T -0.01, K -0.026, I -0.828, W -1.19, N -0.041, P -0.264, L -0.838, M -1.08, V -0.753, A -0.445, G -0.425, F -0.701, Y -0.461
C11: A 0.046, P -0.278, F -0.104, E 0.071, G -0.058, H -0.048, L -0.053, D 0.067, Q 0.046, S 0.012, T 0.005, I 0.007, K -0.039, W -0.147, N -0.04, M 0.057, R -0.074, V 0.01, Y -0.052
K3: R -0.131, F -0.34, H -0.055, Y -0.251, W -0.509, I -0.336, V -0.294, Q -0.035, D -0.192, M -0.287, G -0.05, T -0.081, C -0.145, A -0.089, L -0.331, N 0.058, E 0.012, S -0.06
N13: F -0.961, D -0.259, T -0.684, R -0.415, A -0.487, E -0.446, I -0.65, P -0.949, Q -0.629, Y -0.437, V -0.764, W -0.938, K -0.376, S -0.272, M -0.801, L -0.914
K17: F -0.646, I -0.329, L -0.592, D -0.759, G -0.603, N -0.378, W -0.871, Q -0.664, T -0.366, C -0.113, Y -0.651, V -0.152, E -0.518, A -0.209, H -0.591, R -0.203, S -0.34
E19: I -0.699, L -0.517, D -0.107, C -0.382, F -0.784, R -0.438, Y -0.652, W -0.77, G -0.375, Q 0.007, P -1.01, N -0.299, S -0.26, K -0.324, A -0.147, V -0.379
G10: S -0.146, W -0.401, P -0.248, H -0.18, E -0.155, N -0.147, R -0.248, K -0.112, F -0.323, Q -0.125, L -0.37, T -0.121, C -0.23, A -0.118, I -0.34, Y -0.238
A6: H 0.022, M -0.096, W -0.261, F -0.078, S -0.075, I 0.019, G -0.084, D -0.183, P 0.007, V 0.011, C -0.172, E -0.092, L -0.082, N -0.003, Y -0.008, Q -0.179
T8: H -0.268, Q -0.199, R -0.174, Y -0.49, L -0.388, M -0.161, W -0.513, P -0.069, S -0.019, K -0.07, C -0.29, D -0.274, E -0.24, G -0.215, F -0.472
R14: I -0.724, Y -0.826, F -0.881, L -0.43, P -0.908, N -0.151, M -0.298, H -0.166, V -0.65, G -0.15, S -0.129, C -0.315, E -0.359, Q -0.072, W -0.941, A -0.115, D -0.308, T -0.226
I5: Q 0.041, K -0.042, A 0.007, D 0.026, V -0.037, N -0.004, Y -0.029, F -0.065, S -0.004, M 0.052, G 0.025, T 0.066, W -0.225, R -0.101, E -0.044, H -0.006, L -0.051, P -0.003
V1: W -0.102, Y -0.083, N 0.093, C -0.072, R -0.37, T -0.122, D -0.078, Q -0.369, G 0.002, S -0.038, I -0.025, L -0.047, M -0.065, F -0.104, K -0.043
